Reference: paper PMC10786891, “Massively parallel profiling of RNA-targeting CRISPR-Cas13d”
Residue numbers refer to the chain shown, from its start. Names and notes keep the numbering of the source.

B1: target 1 C4U,U10A (mixed)
RNA 1: CACCCGUGCAAAAAUGCAGGGGUCUAAAACUGAGCGGAUAACCUCUCUAUGG
RNA 2: GGGAAUGGAUCCACAUCUACGAAUUCGUACCAUAGAGAGGUAAUCCGUUCACCGAGAUCGGAAGAGCACACGU
B2: target 1 insC 3' of 8,insA 3' of 3 (mixed)
RNA 1: B1 RNA 1
RNA 2: GGGAAUGGAUCCACAUCUACGAAUUCGUACCAUAGAGAGGUUAUCCCGCUACACCGAGAUCGGAAGAGCACACGU
B3: target 1 insG 3' of 18,insG 3' of 7 (mixed)
RNA 1: B1 RNA 1
RNA 2: GGGAAUGGAUCCACAUCUACGAAUUCGUACCAUAGGAGAGGUUAUCGCGCUCACCGAGAUCGGAAGAGCACACGU
B4: target 1 complement block 6-14 (mixed)
RNA 1: B1 RNA 1
RNA 2: B1 RNA 2 with A38U, G39C, G40C, U41A, A43U, U44A, C45G, C46G, U48C
B5: target 1 A1C,G17U (mixed)
RNA 1: B1 RNA 1
RNA 2: B1 RNA 2 with G35U, A42U, U48C, A51C
B6: target 1 C2G,G12C (mixed)
RNA 1: B1 RNA 1
RNA 2: B1 RNA 2 with G40C, A42U, U48C, C50G
B7: target 1 insU 3' of 9,insG 3' of 4 (mixed)
RNA 1: B1 RNA 1
RNA 2: B2 RNA 2 with C45U, U50G, A51U
B8: target 1 insC 3' of 14,insA 3' of 3 (mixed)
RNA 1: B1 RNA 1
RNA 2: B2 RNA 2 with G39C, U41G, A43U, U44A, C45U
B9: target 1 del13,del20 (mixed)
RNA 1: B1 RNA 1
RNA 2: GGGAAUGGAUCCACAUCUACGAAUUCGUACCUAGAGAGUUAUCCGCUCACCGAGAUCGGAAGAGCACACGU
B10: target 1 del17 (mixed)
RNA 1: B1 RNA 1
RNA 2: GGGAAUGGAUCCACAUCUACGAAUUCGUACCAUAAGAGGUUAUCCGCUCACCGAGAUCGGAAGAGCACACGU
B11: target 1 A1C,A9U (mixed)
RNA 1: B1 RNA 1
RNA 2: B1 RNA 2 with A42U, A43U, U48C, A51C
B12: target 1 C2A,G13A (mixed)
RNA 1: B1 RNA 1
RNA 2: B1 RNA 2 with G39A, A42U, U48C, C50A
B13: target 1 del19,del22 (mixed)
RNA 1: B1 RNA 1
RNA 2: B9 RNA 2 with C31A, U32A, A33G, G34A, A35G, G36A, A37G
B14: target 1 insC 3' of 20,insC 3' of 10 (mixed)
RNA 1: B1 RNA 1
RNA 2: B3 RNA 2 with U33C, A34U, G35A, A44C, U45A, C46U, G47C
B15: target 1 insC 3' of 14,insG 3' of 9 (mixed)
RNA 1: B1 RNA 1
RNA 2: B3 RNA 2 with G36A, A37G, G38A, A39C, U45G, C46U, G47C
B16: target 1 insC 3' of 15,insG 3' of 3 (mixed)
RNA 1: B1 RNA 1
RNA 2: B2 RNA 2 with A38C, G39A, U41G, A43U, U44A, C45U, A51G
B17: target 1 A9G,A14C (mixed)
RNA 1: B1 RNA 1
RNA 2: B1 RNA 2 with A38C, A42U, A43G, U48C
B18: target 1 C2A,G15C (mixed)
RNA 1: B1 RNA 1
RNA 2: B1 RNA 2 with G37C, A42U, U48C, C50A
B19: target 1 del19,del20 (mixed)
RNA 1: B1 RNA 1
RNA 2: B9 RNA 2 with U32A, A33G, G34A, A35G, G36A, A37G
B20: target 1 C2U,U10G (mixed)
RNA 1: B1 RNA 1
RNA 2: B1 RNA 2 with A42G, U48C, C50U
B21: target 1 insA 3' of 11,insC 3' of 9 (mixed)
RNA 1: B1 RNA 1
RNA 2: B2 RNA 2 with U42A, A43U, U44A, C46U, G48C, C49G, U50C, A51U
B22: target 1 U3G,G12U (mixed)
RNA 1: B1 RNA 1
RNA 2: B1 RNA 2 with G40U, A42U, U48C, U49G
B23: target 1 insG 3' of 22,insG 3' of 7 (mixed)
RNA 1: B1 RNA 1
RNA 2: B3 RNA 2 with C31G, A32C, U33A, A34U, G35A
B24: target 1 C6A,U11C (mixed)
RNA 1: B1 RNA 1
RNA 2: B1 RNA 2 with U41C, A42U, C46A, U48C
B25: target 1 insC 3' of 22,insU 3' of 20 (mixed)
RNA 1: B1 RNA 1
RNA 2: GGGAAUGGAUCCACAUCUACGAAUUCGUACCCAUUAGAGAGGUUAUCCGCUCACCGAGAUCGGAAGAGCACACGU
B26: target 1 U8G,C22A (mixed)
RNA 1: B1 RNA 1
RNA 2: B1 RNA 2 with C30A, A42U, U44G, U48C
B27: target 1 insA 3' of 6,insG 3' of 6 (mixed)
RNA 1: B1 RNA 1
RNA 2: B2 RNA 2 with C47A, C49G, U50C, A51U
B28: target 1 insC 3' of 9,insC 3' of 5 (mixed)
RNA 1: B1 RNA 1
RNA 2: B2 RNA 2 with U44C, C45U, U50C, A51U
B29: target 1 insC 3' of 15,insA 3' of 2 (mixed)
RNA 1: B1 RNA 1
RNA 2: B2 RNA 2 with A38C, G39A, U41G, A43U, U44A, C45U, A51C, C52A

These binders were tested against T1, EsCas13d, nuclease-dead (Eubacterium siraeum, UniProt B0MS50, R295A;H300A;R849A;H854A) (assay: crRNA (strand 1, pre-loaded); Mg2+; 40 mM Tris-HCl pH 7.5, 150 mM NaCl, 6 mM MgCl2, 1 mM DTT, 0.1% Tween-20, 0.2 mg/ml BSA; 25 C; 10 min per concentration, then washed). Conditions: tags: His6-TwinStrep-SUMO cleaved; N-terminal SNAP kept (SNAP-Surface 488); label: 3' end held by stalled T7 RNA polymerase.
T1 sequence: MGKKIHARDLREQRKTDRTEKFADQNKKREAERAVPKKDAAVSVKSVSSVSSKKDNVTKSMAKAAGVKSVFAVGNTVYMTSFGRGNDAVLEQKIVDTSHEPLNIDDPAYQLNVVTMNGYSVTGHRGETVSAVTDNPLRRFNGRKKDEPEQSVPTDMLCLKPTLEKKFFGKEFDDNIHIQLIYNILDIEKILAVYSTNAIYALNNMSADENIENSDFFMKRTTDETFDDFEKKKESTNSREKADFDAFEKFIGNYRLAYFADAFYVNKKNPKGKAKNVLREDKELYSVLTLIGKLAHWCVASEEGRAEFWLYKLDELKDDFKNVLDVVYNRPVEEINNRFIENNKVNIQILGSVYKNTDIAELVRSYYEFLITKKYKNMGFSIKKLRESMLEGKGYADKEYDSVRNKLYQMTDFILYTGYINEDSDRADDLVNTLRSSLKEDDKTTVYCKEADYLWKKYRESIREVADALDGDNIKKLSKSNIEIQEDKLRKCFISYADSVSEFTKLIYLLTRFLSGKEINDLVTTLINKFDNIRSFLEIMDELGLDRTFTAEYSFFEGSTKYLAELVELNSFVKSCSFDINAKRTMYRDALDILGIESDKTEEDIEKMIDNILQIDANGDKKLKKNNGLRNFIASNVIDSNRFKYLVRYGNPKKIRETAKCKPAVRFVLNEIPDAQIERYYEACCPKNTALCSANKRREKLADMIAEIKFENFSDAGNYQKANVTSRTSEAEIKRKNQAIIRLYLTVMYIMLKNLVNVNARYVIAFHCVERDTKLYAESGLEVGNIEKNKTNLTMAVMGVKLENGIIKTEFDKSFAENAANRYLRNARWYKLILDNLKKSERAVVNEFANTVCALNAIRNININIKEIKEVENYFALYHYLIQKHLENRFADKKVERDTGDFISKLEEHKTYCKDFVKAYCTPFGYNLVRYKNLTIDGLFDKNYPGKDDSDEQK

Binder | Kd [nM]
B1 | 47 ± 15
B2 | 11.8 ± 0.7
B3 | 34.9 ± 3
B4 | 69 ± 27
B5 | 34 ± 9
B6 | 8.4 ± 0.8
B7 | 13.6 ± 2.1
B8 | 24.8 ± 1.9
B9 | 56 ± 8
B10 | 22.6 ± 1.6
B11 | 20 ± 5
B12 | 5.06 ± 0.27
B13 | 56 ± 16
B14 | 8.7 ± 0.6
B15 | 38 ± 9
B16 | 9.32 ± 0.33
B17 | 46 ± 6
B18 | 40 ± 4
B19 | 32.4 ± 3.4
B20 | 23.6 ± 1.7
B21 | 15.3 ± 0.8
B22 | 8.5 ± 0.4
B23 | 18.1 ± 1.1
B24 | 8.6 ± 0.7
B25 | 18.3 ± 2.7
B26 | 27.6 ± 3
B27 | 32 ± 5
B28 | 10.9 ± 0.7
B29 | 15.6 ± 0.8
